# Source: patent publication US8026342B2, “Compositions and methods for binding sphingosine-1-phosphate” (Lpath, Inc., priority 2006, dated 2011)
# B1: LT1002: murine anti-S1P monoclonal antibody, IgG1 kappa, from hybridoma clone 306D326.26 (antibody, listed as Mus sp., V domains shown)
# VH: QAHLQQSDAELVKPGASVKISCKVSGFIFIDHTIHWMKQRPEQGLEWIGCISPRHDITKYNEMFRGKATLTADKSSTTAYIQVNSLTFEDSAVYFCARGGFYGSTIWFDFWGQGTTLTVS
# VL: ETTVTQSPASLSMAIGEKVTIRCITTTDIDDDMNWFQQKPGEPPNLLISEGNILRPGVPSRFSSSGYGTDFLFTIENMLSEDVADYYCLQSDNLPFTFGSGTKLEIK
# Key:
# [1] = system: experimental autoimmune encephalomyelitis; assay: MOG35-55 induced EAE model of multiple sclerosis; assay type: in vivo, C57BL/6J mice
# Procedure: Experimental protocol—the following experiments were conducted in the laboratory of Dr. Howard Weiner in collaboration with Lpath, Inc. A peptide fragment of myelin oligodendrocyte glycoprotein (MOG35-55; […] (SEQ ID NO: 52)) is used to cause experimental EAE in mice. Mendel, I. et al., A myelin oligodendrocyte glycoprotein peptide induces typical chronic experimental autoimmune encephalomyelitis in H-2b mice: fine specificity and T cell receptor V beta expression of encephalitogenic T cells, Eur J Immunol. 1995 July; 25(7):1951-9. EAE was induced in mice by immunization with a peptide corresponding to amino acids 35-55 of myelin oligodendrocyte glycoprotein (MOG) peptide (MOG35-55) to induce chronic experimental autoimmune encephalomyelitis (EAE). Following immunization with MOG35-55, mice develop an acute episode of EAE that is followed by a gradually developing progressive disease thought to model several features of progressive multiple sclerosis. Mice were treated with antibody to S1P and treated mice were followed to study the effects of S1P-specific antibody on the clinical manifestations of this acute model of EAE. At the end of the experiment, treated mice were also used to analyze the effect of anti-S1P administration on the immune response.
# In a first set of experiments, using 10 mice per group with an average weight of 20 gr, EAE was induced in C57BL/6J mice with 150 ug/mouse MOG35-55 in CFA along with […] pertussis toxin on days 0 and 2. Anti-S1P antibody LT1002 (Sphingomab™) was administered i.v. at a dosage of 75 mg/Kg on day-1, followed by i.p. dosing at 25 mg/Kg every 2 days. Treated mice were followed for 25 days to study the effects of S1P-specific antibodies on the clinical manifestations of this acute model of EAE. Clinical manifestations of the disease include flaccid tail, and limb paralysis which may be scored to give an objective evaluation of clinical symptoms. The standard evaluation of disease severity in the EAE model measures clinical behavior on a 0-6 scale: 0) normal; 1) flaccid tail; 2) abnormal gait, hind leg weakness; 3) partial paralysis, severe ataxia; 4) minimal hind leg movement after painful stimulus; 5) no hind leg movement; 6) moribund state with little or no movement. Means were compared between groups to determine the effect of treatment on clinical scores and body weight gain. Statistical significance of clinical scores and weight were resolved using biostatistical analysis.
# At day 17, two representative mice were sacrificed to study the cellular immune response (proliferation and cytokines) and to analyze CNS pathology. Spinal cords were dissected and sectioned. Sections were stained with hematoxylin and eosin (H&E) to reveal inflammatory cells, with Luxol to visualize myelin, or with silver stain to visualize axons. Total levels of CD4+FoxP3+Treg cells were evaluated by FACS analysis of blood samples taken from the tail on day 17. At day 25, treated mice were analyzed to see the effect of anti-S1P administration on the immune response.
# Injection of synthetic MOG peptide (amino acids 35-55 of myelin oligodendrocyte glycoprotein, referred to as MOG35-55) causes mice to develop significant specific T cell responses in addition to neurological symptoms. Spahn et al., (1999) Eur. J. Immunol 29:4060-4071. Anti-S1P administration was associated with a significant decrease in this proliferative recall response to MOG35-55. Mice were primed by injections of MOG peptide. The spleens were removed and homogenized, and splenocytes were pulsed with different amounts of MOG peptide. Subsequently, cells were pulsed with radiolabel and incubated before cells were harvested and label incorporation was assessed by scintillation counting. […] As measured in cpm, the recall proliferative response was decreased by approximately 36%, 38% and 22% after anti-S1P antibody treatment (at 4 ug/ml, 20 ug/ml and 100 ug/ml of MOG35-55, respectively).
# [2] = system: ovarian cancer (OVCAR3) cells; assay: S1P-induced IL-8 release from ovarian cancer cells; assay type: cell-based, human; conditions: 1 uM S1P
# Procedure: After 22 hours of incubation, cell supernatants were collected and IL-8 secretion was measured by ELISA using an R&D Systems Quantikine human CXCL8/IL-8 kit.
# In parallel, all the variants were tested for their effects on S1P-induced cytokine release from cancer cells.
# CNV lesions = assay: Laser-induced rupture of Bruch's membrane, murine CNV model (Example 4); assay type: in vivo, C57BL6/J mice; conditions: 0.5 μg
# Procedure: Female C57BL6/J mice were subjected to laser-induced rupture of Bruch's membrane and administered either 0.5 μg of Sphingomab or an isotype-matched non-specific (NS) antibody diluted in 2 μl of physiological saline. Mice were sacrificed 14 and 28 days after laser rupture.
# To induce CNV lesions, the pupils were dilated with ophthalmic tropicamide (0.5%) and phenylephrine (2.5%). A coverslip was placed on the eye. An Oculight GL 532 nm (Iridex Corporation, Mountain View, Calif.) coupled to a slit lamp set to deliver a 100 msec pulse at 150 mW with a 50 μm spot size was used to rupture Bruch's membrane in three quadrants of the right eye located approximately 50 μm from the optic disc at relative 9, 12 and 3 o'clock positions. The left eye served as an uninjured control in all cases. Any lesion not associated with a vapor bubble or lesions that became confluent were excluded from analysis.
# To measure CNV lesion size, choroidal flatmounts of the sclera-choroid-RPE complex were prepared and stained for vasculature (R. communis agglutinin I; red) and pericytes (CD 140b; green). […]
# To assess collagen deposition, the sclera-choroid-RPE complex was stained with Masson's Trichrome. […] Approximately 30 sections per lesion were evaluated. Quantitation of the volume of collagen deposition was calculated in the same manner as described for CNV lesion volume.
# [3] = Surface plasmon resonance (Biacore 2000) binding to S1P-coated chip; conditions: read-out: Binding Affinity (KD1)
# Procedure: Each concentration was tested in duplicate. […] All data were collected at 25° C.
# [4] = 75 mg/Kg i.v. day -1, then 25 mg/Kg i.p. every 2 days
molecule,measurement,setting,value
B1,decrease in recall proliferative response to MOG35-55 (cpm),[1]; 4 ug/ml MOG35-55,approximately 36%
same,decrease in recall proliferative response to MOG35-55 (cpm),[1]; 20 ug/ml MOG35-55,~38%
same,decrease in recall proliferative response to MOG35-55 (cpm),[1]; 100 ug/ml MOG35-55,~22%
same,EAE development,[1]; [4],significant inhibition
same,EAE severity score (0-6 scale) at plateau,[1]; [4],approximately 2
same,circulating lymphocytes,[1]; antibody-treated animals,approximately 10%
same,demyelination in spinal cord,[1]; antibody-treated animals,less than 1%
same,"spleen CD4+ T cells, of lymphocytes in spleen",[1]; antibody-treated animals,approximately 7.6%
same,axonal loss,[1]; antibody-treated mice,less than 2%
same,CD4+CD25+Foxp3+ Treg in spleen,"[1]; mouse, in vivo",significant increase
same,IFNγ secretion by splenocytes upon MOG35-55 stimulation,"[1]; mouse, in vivo",lower levels
same,IL-10 secretion by splenocytes upon MOG35-55 stimulation,"[1]; mouse, in vivo",higher levels
same,IL-17 secretion by splenocytes upon MOG35-55 stimulation,"[1]; mouse, in vivo",lower levels
same,circulating CD4+CD25+Foxp3+ Treg cells,"[1]; mouse, in vivo",statistically nonsignificant increase
same,decrease in spleen CD4+ T cells after antibody treatment,[1]; vs control animals,~35%
same,decrease in circulating lymphocytes after antibody treatment,[1]; vs control animals with EAE,~26%
same,decrease in axonal loss after treatment,[1]; vs untreated controls with EAE,~91%
same,decrease in demyelination after treatment,[1]; vs untreated controls with EAE,~92%
same,decrease in number of inflammatory cells/mm^2 in spinal cords,[1]; vs untreated controls with EAE,about 85%
same,reduction of S1P-induced IL-8 release,[2],reduced IL-8 release
same,choroidal neovascularization,CNV lesions; 14 and 28 days after laser rupture,dramatically attenuates
same,fibrosis associated with CNV lesion formation,CNV lesions; 28 days after laser rupture,significantly reduces
same,Kd,[3],0.026 nM
